Test results taken from the DeepSol protein solubility set.

Assay: soluble on expression in E. coli; label from the status in PepcDB or PDB records
In the case of “MGSDKIHHHHHHQEAKGSADETKVEVQYLDPRDPFEGFNRAMWDFNYLYLDKYILKPVAHGYNDYLPLPVKDGVHNFTTNFDEPSSLVNNILQGKWSWAANAGGRFTVNTSLGILGIFDVAQMMGMERKQDDFSEVLGFYGVPNGPYFMAPFFGPFVTREIASDWVDGLYFPLSELTMWQSALKWGMKSLHNRAEAIDRERLLDNALDPYAFVKDAYFQHVDYKVYDGNVPTTQEDDELLDEFMEELE”, the “soluble on expression in E. coli” value is reported as “not soluble”. In the case of “MGSDKIHHHHHHQLVLAPADAERYAQNSFPEYLELLTLQNDAAVPADIQRNADWLEKAFQKRGFTTQTLTNGDKPLVYAEFGAAKSDRKTILFYMHFDGQPVNPSEWQTPPWQPVLKEKDAAGKWQTLPESRLLKGDINPEWRIFARASADDKGPIVMFLAAMDAMKEKGVEPAVNIKVLLDSEEEKGSPGLTTVMADHLMLLKSDGMVIYDGAMPSSNRPGINFGNRGSIQIDMTVFGANAAAHSGGYGNVIPNPVQNLATLLASMKDADGKVTIPGYYDRVTLSDSDKKQVAETSPPAGSLEKRFGVAQLDKVAGNAAEAVQYPSLDILGIKAGETGKKASNAIPSTATASVNIRTVPETPPDDMYALLRQYIASKGFHIIAGESPTQAEREQYPHLISLHLTAYPSSAYAARTEIDSPLGHWAVATTTAPRGIAPEKNRMMGGTLPMSGAVSVLKVPYVIVPLVNADNNQHSFDENLRLGNYLEGIRTIVAMATTPLS”, the “soluble on expression in E. coli” value is reported as “not soluble”. For “MGSDKIHHHHHHQTDTSDERATDSTTAEVTIIYNDERDPLEGFNRAMWDFNYQFLDKYFYRPVAHGYNDILPRPVKTGVNNFVLNFEEPSSMVNNALQGKWGWAANAGGRFTINTTIGLLGVIDVADMMGLQRKQDEFNEVLGYYGVPNGPYFMAPFLGPYVTRELASDWVDGLYFPLSELTMWQSLAKWGLKNLHRRASAIDQERLVDNALDPYTFVKEAYFQHLDYKVYDGDIPVSTDDDELLDEYMTELD”, the “soluble on expression in E. coli” value was “not soluble”. In the case of “MGSDKIHHHHHHSHKYTAITPGVEWLDTNNEKINAHGGGILYHEGIYYWYGECKSDSTYWNPNVPGWECYRTEAGGVNCYSSKDLLNWKYEGLVLQPEISDTQSDLHPSKVLERPKVIYNDKTKKFVMWLHVDSDDYNKAAAGVAVSDSPTGVFTYLGSMHPNGQISRDMTLFKDDDGKAYHIYSSEQNSTLYISLLSDDYLKPSGTFTRNFAGKFREAPAVFKHNGLYYVISSGCTGWSPNEAEYAVATQILGPWTVKGNPCVGKDADKTFYGQSTHVLPIQGKKDAYIAMFDKWNKTDLIHSTYIWLPIQFREDGSMAIQWLDSWSPDTYEF”, the “soluble on expression in E. coli” value is reported as “not soluble”. In the case of “MGSDKIHHHHHHTIVSCSDDKGEDGYNPNLPVRISELSPQEGGYFDKVILQGENFGNNPKKVRVFFNKKEAIVVGASGDRVLVHVPKLPGDDCKIGMLLNGNTTDTIFAEKHFAYEKNYQLIYVAGQLNSNTETFVEGSLETTTFANSMQHLACDPSGVIYMNHKNQVKVAVLFTLMNLRTTLSFWIMEHLLKTEARLALRIMMTKQRRFTSVRTMLHFFGKLILRIHGLL”, the “soluble on expression in E. coli” value is reported as “not soluble”. With “MGSDKIHHHHHHVACKPKEKPSSATSLTDDALMDTVQRRTFNYFWDAAEPNSGLARERYHMDGEYPAGGPEIVTSGGSGFGIMAILAGIDRGYVSREEGLRRMEKIVGFLEKADRFKGAYPHWWNGETGHVQPFGQKDNGGDLVETAFLMQGLLAVHQYYAEGSAEEKKLAGRIDKLWREVDWNWYRHGGQNVLYWHWSPEYGWEMNFPVHGYNECLIMYILAAASPTHGVPAAVYHEGWAQNGAIVSPHKVEGIELHLRYQGGEAGPLFWAQYSFLGLDPVGLKDEYCPSYFNEMRNLTLVNREYCIRNPKHYKGYGPDCWGLTASYSVDGYAAHGPLERDDRGVISPTAALSSIVYTPDQSLQVMHHLYEMGDKVFGPYGFYDAFSETADWYPKRYLAIDQGPIAVMIENYRTGLLWKLFMSHPDVQNGLKKLGFNVKK” the “soluble on expression in E. coli” value was “not soluble”. For “MGSDKIHHHHHHVAELVFFSGTMDCGKSTLALQMDHNHRARGRGGVRFSRNDRAGGARISSRLGLETDCVEVLDTTDFWDEVIERRTRGLRVDYLICDEAQFYSPLQVEQLARIVDEIDVDVFAFGISADFRTRLFPGSQRLIELADRVQVLQVEALCWCGRRATHNARTVDGVMVTEGAQVVVGDVDMAGDPASASADHAPVVGYETLCRRHFMRRVTAHGANVMAQQDQLLPFEVDACLWHGSGETRHS”, the “soluble on expression in E. coli” value was “not soluble”. For “MGSDKIHHHHHHVAKQKFKITNWPTYNKALINRGSITFWLDDEAIQAWYESATPSSRGRPQRYSDLAITTVLVIKRVFRLTLRAAQGFIDSIFTLMNVPLRCPDYTSVSRRAKSVNVSFKTFTRGEIAHLVIDSTGLKVFGEGEWKVKKHGQERRRIWRKLHLAVDSNTHEIICADLSLNNVTDSEAFPGLIRQTHRKIRAAAADGAYDTRLCHDELRRKKISALIPPRKGAGYWPGEYADRNRAVANQRMTGSNARWKWTTDYNRRSIAETAMYRVKQLFGGSLTLRDYDGQVAEAMALVRALNKMTKAGMPESVRIA”, the “soluble on expression in E. coli” value was “not soluble”. With “MGSDKIHHHHHHVDALEVHRFLKGKIRTALPVEKVDRETLSLLYTPGVADVARACAEDPEKTYVYTSRWNTVAVVSDGSAVLGLGNIGPYGALPVMEGKAFLFKAFADIDAFPICLSESEEEKIISIVKSLEPSFGGINLEDIGAPKCFRILQRLSEEMNIPVFHDDQQGTAVVVSAAFLNALKLTEKKIEEVKVVVNGIGAAGYNIVKFLLDLGVKNVVAVDRKGILNENDPETCLNEYHLEIARITNPERLSGDLETALEGADFFIGVSRGNILKPEWIKKMSRKPVIFALANPVPEIDPELAREAGAFIVATGRSDHPNQVNNLLAFPGIMKGAVEKRSKITKNMLLSAVEAIARSCEPEPERIIPEAFDMKVHLNVYTAVKGSA” the “soluble on expression in E. coli” value was “soluble”. With “MGSDKIHHHHHHVLNFDYDLQSVQETRNLARQAKQAQTELAQFNSEQIDKIIRNMVKVAEENAVALAKLAVEETGFGKVEDKVFKNRFASTELYQFIKPMQTIGVIKEDKINKVMEIAEPVGLLMGIVPSTNPTSTTIYKSLIAIKARNGIVFSPHPSALKCTLEAAKLMNDAAVAAGAPANIIGCISKPSMNATNELMKCDEVAMIIATGGSAMVKAAYSAGKPALGVGPGNVPAYIERTADIPKAVRNIIASKTFDNGTICASEQSVVVEECIRNQVMEEFKRQGGYFMTPEETEQVGRKLFNRGHAMNAKMVGRSAADIAAGAGISIPPGTKVLLGEQQGVGEQYPLSYEKLTTVLAFYTVKDWHEACDLCMKLLNNGGVGHSLSIHTENPEMAIKFAEKPVFRILVNTASTHGGVGVSTGLAPAFTLGCGTWGGSATSDNVTPMHLINIKRVAYGIKDVTENGNSSYATGDAQQGGSGGTVSEDRIQALVNEVMSLLKQRGDC” the “soluble on expression in E. coli” value was “not soluble”. With “MGSDKIHHHHHHVLVLVLFTTVDRTPYKQMPYYTSMMKALDTFHVDVQHKKGDTLRAAWYKVALTPHTFPHPLAGYGLRKKAVSVNDTTFVRTFIFDNAKTRVAYVSLDLLIFPPALKDRVRAELETTYNLQVFLTATHTHSAPGGWEPKIAGRVLAGEYSDEYVALLFNAINECISKAIPRLQKVEQAYIRVSAPEAVQNRLKGADAPKDSFIRGIKFRNKSGEEACLFTFAAHANCLNSDVDYVSADYPGIVSAELEKRKWASFVSYAAGAVGSHAPTFETILDGKLRADTVSSILVEKLQETKAAYAYTNQLYYHRLPLFLRDAHLRVEKDIRIRPWVFNTILGKDIPDIQIIEIGETVLLGMPCDYSGELMPPLEKICADNQSNFMLSGFNGGYIGYITDDACYDWDRGETMDMNWFGPYNAAYLTEVNTVILKKVLTGE” the “soluble on expression in E. coli” value was “not soluble”. For “MGSDKIHHHHHHVNAIQVPDAPVVLSTASVYPEKTPAAFEIAAELGYDGIEVMVTADPVSQDIDMLRRLSEYHQIPITAIHAPCLIFTQRVWGRDPWIKLIKSKEMAEALGATTVVVHPAFKWQREYAREFESGILKMRDETDVIFAVENMYQVRMRGKEVVPYAPSWNPLDRDYPNVTLDLSHTAMSQSDAMDMARQLGDRLSHVHLADGVGGQNFDEHLIPGRGNQPCAELLEHLANNDYRGQIVLEVNTRKSDRETRLTELAEALAFTRLHFARSVPPEPRSEQPEREQIVVRSVPAPALRVFSVHSDGTVSTD”, the “soluble on expression in E. coli” value was “not soluble”. In the case of “MGSDKIHHHHHHVQQSQIMEDKIISAVRTFASSINSGGKVVADMSELIEVTSQLPLSSFDYWERFIRSEFSTALRESNSPKWKVWSKPKELVTWLDLISWDGYKREKALRALSGAAPNTFFFSLAVRRLNDWVPQVRKAAREKLPEIAKSTVPECVVDALCVALSNWNSWGRIEDADKEVLLKILCEKEIAKSLRSKLIFSASGPMPSLFSQLGRTPILDGQIEEIAKSAIQPSVRAKAYRSLFEGRVIWIEGRKWVWTDIRYCEGRLKPIVGERKLEIETPLIDLLKRSSEDRSSIVRRVSAEILIRELGNLGVKAKEFAERFALDSSQAVSERGDFALKKLDEAERANAS”, the “soluble on expression in E. coli” value is reported as “not soluble”. In the case of “MGSDKIHHHHHHVQYLDKLVSGLAVELHVPEGDYEGNYKTHVDEIGKTRLSVYAPHYQGMIIPLQEGTLVEVTFWDDVASYSFMSSVLQRVATPIPMFVLKMPDSIRRVQRRNYVRVSASFPITYQVVEREGLGDLLKGNMLDLSGGGMRFQAKVKLDKGSILYANLELPCGIIGTPGRVCRVEPIEDTKYFSVSVDFYQISERDRDRIIRCVFDIQRDLRKKGLI”, the “soluble on expression in E. coli” value is reported as “not soluble”. In the case of “MGSDKIHHHHHHVRIAILSQGPQLYSTKRLVEAALARGHEVKVINPLKCYMNINMTKPSIHMAGKDLGHFDAVIPRIGASVTFYGSAVLRQFEMMGVYAVNGSIGIARSRDKLRSMQLLSRQGIGLPITGFANKPSDIPDLIDMVGGAPLVVKLLEGTQGIGVVLAETRKAAESVLEAFMGLKANIMVQEYIAEAQGADIRCFVLGDKVIAAMKRQAKPGEFRSNLHRGGSATLVKLTPEERSVALRAAKTMGLNIAGVDLLRSNHGPVVMEVNSSPGLEGIEKATQKDVADAIICFMEKNANKSIKSAQ”, the “soluble on expression in E. coli” value is reported as “not soluble”. For “MGSDKIHHHHHHVSGAILSGPEQKPDQDDIETALFRHLAQQGWCLSAPTPLAGGRSNHVWRAGDKVVKLYRSDAHNPLFANDPDRERAMLRALSGTGMAPRFLAHGLWQGQAWLMYTHVCGARWESDPSHVARILSIVHDQAKPRGLPFGCNGSEALAQQTRQIVSAASQGTTLLDRAPQGVVPPTSQLCLIHGDPVPGNIVAHNGTLALIDWQCPQLGDPAEDLALFLSPAMQLAYRGRVLSRQEEAEFVTAYPHPRVVARYYALKPWFHWRMAAYCAWRGETDARDLELAEI”, the “soluble on expression in E. coli” value was “not soluble”. In the case of “MGSDKIHHHHHHVSGPGLLPFRLTICGIDELPDHAAAGVSHVVTILDPQWPDPEHFALYPPHSRTIWRFHDIVNPQEGQAHPTMRDVEAILDYGTALKTETVEHLLIHCHMGISRSTATAIILMAQHNPGREAEAFTHLKAIRPFSWPNSRMVRMADDQLKRKGALVDAMRLHHHGVARRHPDKMAYLRTSERAAEVPPEE”, the “soluble on expression in E. coli” value is reported as “not soluble”. With “MGSDKIHHHHHHVSQLTPWQHYQQDLTRDDFSHDAAQEQAVKSLQRVYDELIVAAKPASSVSKLFSAIGIKSTPTPVKGLYLWGGVGRGKTYLMDTFFDALPTDRKLRAHFHRFMHQIHNDLGELKGVQDPLLTIAKKMASQYQIICFDEFFVSDITDAMLLGTLFQALFKEGVALVATSNIIPDELYKNGLQRVRFLPAIALINQHCEILNVDSGIDYRLRTLEQAEIYHYPLDEQADINLLHYFDQLAPESEKLTAPIDVDGRAIRIRQQSQGVLLINFRDLCDGPRSQRDYMEMACLYHTVLVSGLEQMGSQQTGDDIARRFLAMVDEFYERNVKLIISAQVELEHIYTDGQLNFEFRRCRSRLIEMQSREYLALEHLP” the “soluble on expression in E. coli” value was “not soluble”. In the case of “MGSDKIHHHHHHVSSTIWTPTAVASEAAAIRFSLWRAVEGQHAVSTMVLVDSLEEQALLEQLLEGSKPPVPASANGLHWLLFTPFRYPPPPTGSRFRGPLDPGVFYGADEIETACAELGFWRWQFLMESPSLTALDPKPQTVFKVEVDTLTVDLRSPPFTESRALWIDPKSYAATQDLARSAREANIGAIRYESVRAPNRGGCGAILTPMAFAEPQPRDAQTWWLSVSRERVLWQRDDVLQRATFAFDTKAFCE”, the “soluble on expression in E. coli” value is reported as “not soluble”.
